Test results: paper PMC6908968 (Cell, 2019)
Where a chain is given by its changes, count along the chain named.

Assays:
[1] = target: T1, thermolysin-cleaved EBOV GP on Jurkat-GP cells (cleaved GP) (Zaire ebolavirus, Makona (GP1 core …, strain))
T1 chain 1: not shown
T1 chain 2: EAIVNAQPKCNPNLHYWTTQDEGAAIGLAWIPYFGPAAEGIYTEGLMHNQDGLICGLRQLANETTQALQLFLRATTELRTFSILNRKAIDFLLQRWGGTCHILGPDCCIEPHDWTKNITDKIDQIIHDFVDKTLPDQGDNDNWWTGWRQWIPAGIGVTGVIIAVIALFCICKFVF

[2] = target: EBOV GP ectodomain residues 1-636 (GPec) (Zaire ebolavirus, strain  …, UniProt Q05320)

B1: 5.6.c2798 (antibody, V domains shown)
VH: QVQLQESGPGLVKPSETLSLTCTVSGGSISPDYWTWIRQPPGKGLEWIGFIYYAGGTDYNPSLKSRVTMSIDTSKKQFFLKLNSVTAADTAVYYCASGVPEDNSQILYYYYGMDVWGPGTTVTVSS
VL: QSVLTQPPSVSAAPGQKVTISCSGSSPNIGNNYVSWYQQLPGTAPKLLIYDNNKRPSGIPDRFSGSKSGTSATLGITGLQTGDEADYYCGTWDRSLSAYVFGTGTKVTVL
[1]
  binding result: binds
[2]
  binding result: binds

B2: 5.6.c2682 (antibody, V domains shown)
VH: QVQLVESGGGVVQPGRSLRLSCAASGFTFSNYAMHWVRQAPGKGLEWVAVTSDDKDNRYYADSVKGRFIISRDNSKNTLYLQMNSLRAEDTAVYHCAKDFEVFSSIFNGAYDSWGQGTLVIVSS
VL: EVVMTQSPATLSVSPGERATLSCRASQSVGFNLAWYQQKPGQAPRLLIYDASTRATGIPARFSGSGSGTEFTLTISSLQSGDFAVYYCQQYNNWPPYTFGQGTKLEIK
[1]
  binding result: binds
[2]
  binding result: binds

B3: 5.6.c2670 (antibody, V domains shown)
VH: QVQLEQWGAGLLKPSETLSLTCGVNGGSFSGSYWIWIRQSPGKGLEWIGEISHSGSTNSNPSLKSRVTISVDTSKNHFSLTLSSVTAADTAVYYCATSTLDSSSVFYYSYGLDVWGQGTTVTVSS
VL: DIQMTQSPSSVSASVGDRVTITCRASQDISSWLAWYQQKPGRAPNLLIYAASSLLSGVPSRFSGSGSGTDFTLTISSLQPGDSATYYCQQGHSLPLTFGGGTKVEIR
[1]
  binding result: binds
[2]
  binding result: binds

B4: 5.6.c2644 (antibody, V domains shown)
VH: QVQLVQSGAEVKKPGASVKVSCKASGYTFSNYGITWVRQAPGQGLEWMGWISAYNGNTKYAQKVQGRVTLSTDTSTSTAYMELRSLRSDDTAIYYCARDPGMITPGGVIEHWGQGTLVTVSS
VL: DIQMTQSPSSLSASVGDRVTVTCRASQGISNYLAWYQQKPGKVPKLLIYAASTLHSGVPSRFSGSGSGTDFTLTISSLQPEDVATYVCHNYNNAPRTFGQGTKVEIK
[1]
  binding result: binds
[2]
  binding result: binds

B5: 5.6.c2685 (antibody, V domains shown)
VH: EVQLVESGGGLVQPGGSLRLSCAASGFTFSRSWMNWVRQAPGKGLEWVANIKQDGSEKYYVDSVKGRFTISRDNAKNSLYLQMNSLRAEDTGVYYCAKATVTTELTFFYYYALDVWGQGTTVTVSS
VL: EIVMTQSPATLSVSPGERATLSCRASQSINNNLAWYQQKPGQAPRLLISDASTRATGVPARFSGSGSGTEFTLTISSLQSEDSAVYHCQQYNTWPPFTFGGGTKVEIK
[1]
  binding result: binds
[2]
  binding result: binds

B6: 5.6.c2692 (antibody, V domains shown)
VH: QVTLRESGPALVKSTQTLTLTCTFSGFSLSTSGMCVSWIRQPPGKALEWLALIDWDDGKYYSTSLKTRLTISKGTSKNQVVLTMTNMDPVDTATYYCARIRYTSDWFYDAFDIWGQGTMVTVSS
VL: B5 VL with I2T, I29V, N31S, K39R, D50G, V58I, S83F, H87Y, T93D, F97L
[1]
  binding result: binds
[2]
  binding result: binds

B7: 5.6.c2724 (antibody, V domains shown)
VH: QVQLQQLGAGLLKPSETLSLTCAVSGGSFSGYYWSWIRQSPGKGLEWIGEVNQSGNTNYNPSLKSRVTISPDTSKNQFSLKLSSVTAADTAVYYCARGLEDTALLADAFDIWGQGTLVTVSS
VL: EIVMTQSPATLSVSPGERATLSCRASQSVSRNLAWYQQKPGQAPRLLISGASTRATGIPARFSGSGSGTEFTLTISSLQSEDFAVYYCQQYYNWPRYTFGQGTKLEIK
[1]
  binding result: binds
[2]
  binding result: binds

B8: 5.6.c2636 (antibody, V domains shown)
VH: QVQLVQSGAEVKKPGASVKVSCKASGYTFTDYYMHWVRQAPGQGLEWLGIIIPTGTLSYAQKFQGRVTMTSDTSTNTFYMELRSLRSEDTAVYFCAREKSRDFDWELFDYWGQGTLVTVSS
VL: QSVLTQPPSASGTPGQRITISCSGSSSNIGNNAVSWYQQIPGMAPKLLIYSSNQRPSGVPDRFSGSKSGTSASLAISGLQSEDETDYYCAAWDDSLNGPVFGGGTKVTVL
[1]
  binding result: binds
[2]
  binding result: binds

B9: 5.6.c2686 (antibody, V domains shown)
VH: QVQLQESGPGLVKPSGTLSLTCAVSGGSITSSDWWSWVRQTPGKGLEWIGQIYSGGMTDYNPSLKSRVTMSLDKSKNQFSVKLNSVTAADTAVYYCARHRLNAEMYCSGGSCYPADSNWFDPWGQGTLVTVSS
VL: DIQMTQSPSSLSASVGDRVTITCRASQSISTYLNWYQQKPGKAPKLLIYATSSLQSGVPSRFSGSGSGTDFTFTISSLQPEDFATYYCQQSYSTPFTFGPGTKVDIK
[1]
  binding result: binds
[2]
  binding result: binds

B10: 5.6.c2824 (antibody, V domains shown)
VH: QVQLQESGPGLVKPSGTLSLTCAVSGGSISSNSWWSWVRQPPGKGLEWIGDMYHSGSTNYNPSLKSRVTISVDKSKNQFSLKLSSVTAADTAVYYCARARHDDSNTFLWFVYGMDVWGQGTTVTVSS
VL: B9 VL with A25T, T31S, T51A, F73L, S77T, Y87F, F96R, P100Q, V104L, D105E
[1]
  binding result: binds
[2]
  binding result: binds

B11: 5.6.c2886 (antibody, V domains shown)
VH: QVQLQESGPGLVKPSQTLSLTCTVSGGSISSGDYYWSWIRQHPGKGLEYIGYIYYSGSTFHNPSLKSRVTISIDTSKNQFSLKLSSVTAADTAVYYCARDSGSEIIMGAYGMDVWGQGTTVTVSS
VL: DIQMTQSPSSVSASVGDRVTITCRASQGISWLAWYQQKPGKAPKLLIYAASSLQSGVPSRFSGSGSGTDFTLTISSLQPEDFATYYCQQANSFPWTFGQGTKVEIK
[1]
  binding result: binds
[2]
  binding result: binds

B12: 5.6.c2712 (antibody, V domains shown)
VH: QVQLQESGPGLVKPSETLSLTCSVSGGSISSDYWSWIRQPPGKGLEWIGYIYYDGSTNFNPSLKSRVTISVDTSKNQLSLKLSSVTAADTAVYYCARVRRWIELGTGLGDWFDPWGQGTLVTVSS
VL: SSELTQDPAVSVALGQTVRITCQGDSLRSYYASWHQLKPGQAPVVVIYGIHNRPSGIPDRFSGSSSGNTASLTITGAQAEDEADYYCSSRDSSGNHLVFGGGTKLTVL
[1]
  binding result: binds
[2]
  binding result: binds

B13: 5.6.c2801 (antibody, V domains shown)
VH: EVQLVESGGGLVQPGGSLRLSCAASGFTFSTYWMSWVRQAPGKGLEWVANIKEDGSEKYYVDSVKGRFTISRDNGKNSLYLQMNSLRAEETAVYYCARDVPGDTVLGDAFHIWGQGTMVTVSS
VL: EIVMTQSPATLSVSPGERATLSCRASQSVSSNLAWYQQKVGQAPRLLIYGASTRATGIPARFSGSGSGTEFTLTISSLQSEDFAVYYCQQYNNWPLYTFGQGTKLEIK
[1]
  binding result: binds
[2]
  binding result: binds

B14: 5.6.c2693 (antibody, V domains shown)
VH: QVQVVESGGGVVQPGRSLRLTCATSGFTFRSYGMHWVRQAPGKGLEWVAGISYDGSNKYYADSVKGRFSISRDNSKNTVYLQMNSLRVEDTAVYYCANQLICVNGVCYKTTSVAGIDYWGQGTLVTVSS
VL: DIQMTQSPSSLSASVGDRVTITCRASQDISNYLAWFQQKPGKAPKCLIYAASSLQSGVPSKFSGSGSGTDFTLTISSLQPEDFATYYCQQYKDYPLTFGPGTKVDVR
[1]
  binding result: binds
[2]
  binding result: binds

B15: 5.6.c2725 (antibody, V domains shown)
VH: QVQLQESGPGLVKPSQTLSLTCTVSGGSISSGGYYWSWIRQHPGKGLEWIGYIYYSGSTYYNPSLKSRVSISAGTSKNQFSLKLSSVTAADTAVYYCARAYCGGDCYSLLYYYYGMDVWGQGTTVTVSS
VL: QSALTQPASVSGSPGQSITISCTGTSSDVGGYNSVSWYQQHPGKAPKLMIYDVSNRPSGVSDRFSGSKSGNTASLTISGLQAEDEADYYCSSYTSSSTLVFGGGTKLTVL
[1]
  binding result: binds
[2]
  binding result: binds

B16: 5.6.c2866 (antibody, V domains shown)
VH: QVQLVQSGAEVKKPGSSVKVSCKASGGTLSSYAISWVRQAPGQGLEWMGRIIPTLGMANYSQNFQGRVTITADKSTSTAYMELSSLRSEDTAVYYCARDPPPGYGDLFYYYSMDVWGQGTTVTVST
VL: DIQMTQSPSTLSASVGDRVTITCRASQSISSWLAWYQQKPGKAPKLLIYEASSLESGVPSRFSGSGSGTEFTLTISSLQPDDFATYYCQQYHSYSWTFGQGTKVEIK
[1]
  binding result: binds
[2]
  binding result: binds

B17: 5.6.c2687 (antibody, V domains shown)
VH: QVQLMESGGGVVQPGRSLRLSCAASGFTFSSYGMHWVRQAPGKGLEWVAVIWNDGSNKYYADSVKGRFTISRDNSKNTLYLQMNSLRVEDTAVYYCARDSSAPAAIFYDAFDMWGQGTMVTVSS
VL: EIVMTQSPATLSVSPGERATLSCRASQSINSNLAWYQQKPGQAPRLLIYGVSTRATGIPARFSGSGSGTEFTLTISSLQSEDFAVYYCQQYNNWWTFGQGTKVEIK
[1]
  binding result: binds
[2]
  binding result: binds

B18: 5.6.c2773 (antibody, V domains shown)
VH: QVELQESGPGLVKPSGTLSLTCTVSGGSISSYHWSWIRQPPGKGLEWIAYMYYSGSTNYNPSLKSRVTTSVETSKNQLSLKVSSVTAADTAVYYCARIVGDEIFFYGLDVWGQGTTVTVSS
VL: DIQMTQSPSSVSASVGDRVTITCRASQDISILLAWYQQKPGKAPKLLIYAASSLQSGVPSRFSGSGSGTDFTLTISSLQPEDFATYYCQQANSFPWTFAQGTKVEIK
[1]
  binding result: binds
[2]
  binding result: binds

B19: 5.6.c2762 (antibody, V domains shown)
VH: QLQLQESGPGLVRPSETLSLTCTVSGGSINTNVYYWGWIRQPPGKGLEWIGTIHYSGSTYYNPSVKSRVTISVDTSTNQFSLRLNSLTAADTAVYYCARLAYGSGWAGWFDPWGQGTLVTVSS
VL: SSELTQDPAVSVALGQTVRITCQGDSLRVYYATWYQQKPGQAPVLVIYAKNSRPSGIPDRFSGSSSGNTASLTITGTQAEDEADYYCNSRDSSGKVWVFGGGTKLTVL
[1]
  binding result: binds
[2]
  binding result: binds

B20: 5.6.c2828 (antibody, V domains shown)
VH: EVQLVQSGAEVKKPGESLRISCKGSGYSFTKYWISWVRQMPGKGLEWMGRIDPSDSSTNYSPSFQGHVTISDDKSTSIVYLQWSSLKASDTAMYYCARHSWVQNSAYDPQMISYDHYYGMDVWGQGTTVTVSS
VL: ENVLTQSPGTLSLSPGERATLSCRASQSVSSSYLAWYQQKPGQAPRLLIYGASSRATGIPDRFSGSGSGTDFTLTISRLEPGDFAVYYCHQYGSSPLTFGQGTRLEMK
[1]
  binding result: binds
[2]
  binding result: binds
